{
  "source": "paper PMC3937454",
  "origin": "cited, not measured here",
  "key": {"[1]": {"target": "Lys146 (UniProt position 164, LRKLRKRLLRD)", "conditions": "not stated (lipid-free or lipid-bound state not specified for the quoted values)"}, "[2]": {"target": "Lys143 (UniProt position 161, ASHLRKLRKRL)", "conditions": "not stated (lipid-free or lipid-bound state not specified for the quoted values)"}},
  "data": [
    {"substance": "Apolipoprotein E3 (apoE3) (Homo sapiens)", "values": [
      {"measurement": "pKa", "setting": "[1]", "result": 9.2},
      {"measurement": "pKa", "setting": "[2]", "result": 9.5}
    ]}
  ]
}
